The record followed here is article PMC11456535, “Receptor activity-modifying protein modulation of parathyroid hormone-1 receptor function and signaling” (Frontiers in Pharmacology, 2024).

The target of experiment [1] is PTH1R of the PathHunter CHO-K1 PTH1R β-arrestin cell line (UniProt Q03431).
For experiment [2] the target is unchanged. This is another data set of the same source.
Experiment [3] has the same target. This is another data set of the same source.
Experiment [4] addresses T1, parathyroid hormone 1 receptor, C-tagged Citrine PTH1R (human, UniProt Q03431 27-593).
T1 construct: parathyroid hormone 1 receptor (PTH1R), cDNA without its stop codon between HindIII and Not1 of pcDNA3.1 Citrine; also called parathyroid hormone receptor-1; PTHR1; source: COS-7, transfected (electroporation, pcDNA3.1), in fixed cells; not shown: Citrine, C-terminal, kept
T1 sequence (looked up): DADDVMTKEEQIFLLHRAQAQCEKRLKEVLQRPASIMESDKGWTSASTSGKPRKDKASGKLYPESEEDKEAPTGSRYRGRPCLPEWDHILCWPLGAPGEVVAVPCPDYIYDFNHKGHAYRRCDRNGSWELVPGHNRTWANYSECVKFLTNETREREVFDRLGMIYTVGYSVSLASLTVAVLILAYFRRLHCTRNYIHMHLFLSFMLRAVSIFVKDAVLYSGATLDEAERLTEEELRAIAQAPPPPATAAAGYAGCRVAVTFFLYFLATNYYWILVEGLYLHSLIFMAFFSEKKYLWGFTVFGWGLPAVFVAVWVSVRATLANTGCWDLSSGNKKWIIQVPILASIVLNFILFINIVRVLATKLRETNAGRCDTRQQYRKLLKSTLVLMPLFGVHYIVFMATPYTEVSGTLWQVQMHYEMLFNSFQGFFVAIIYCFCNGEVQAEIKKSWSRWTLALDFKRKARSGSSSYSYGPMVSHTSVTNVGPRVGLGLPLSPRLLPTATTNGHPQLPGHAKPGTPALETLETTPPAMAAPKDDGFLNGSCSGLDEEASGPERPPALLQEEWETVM
The experiment is described as follows: FRET or BRET; sensitized-emission FRET imaging at the cell surface (50-pixel membrane ROIs) of fixed COS-7 cells co-transfected with C-tagged Citrine PTH1R (acceptor) and C-tagged Cerulean RAMP (donor); NFRET as % of a Cerulean-Citrine fusion; FRET-based stoichiometric analysis (Hoppe et al., 2002). The note with it: partners not purified. Background: BRET reads energy transfer from a luciferase to a nearby fluorophore.

Experiment [5] has as its target T1, parathyroid hormone 1 receptor, …. Described as above. As to conditions: partners not purified. The source holds these as a separate data set.

Like-named read-outs stand apart in the source and are kept apart here.

As to PTH (1-34) (peptide), in experiment [1], the efficacy, cAMP accumulation (Gαs), CHO-K1 PTH1R + RAMP2 cells was 79.4%; the efficacy, cAMP accumulation (Gαs), CHO-K1 PTH1R + RAMP3 cells stood at 65.1%; the efficacy, cAMP accumulation (Gαs), CHO-K1 PTH1R parental cells (mock) was 68.1%; the efficacy, cAMP accumulation after pertussis toxin (cAMP + PTX), CHO-K1 PTH1R + RAMP2 cells was determined as 71.6%. In experiment [1], the efficacy, cAMP accumulation after pertussis toxin (cAMP + PTX), CHO-K1 PTH1R + RAMP3 cells was 28.7%; the efficacy, cAMP accumulation after pertussis toxin (cAMP + PTX), CHO-K1 PTH1R parental cells (mock) is 33.5%; the efficacy, calcium influx (Gαq), CHO-K1 PTH1R + RAMP2 cells was 63.5%; the efficacy, calcium influx (Gαq), CHO-K1 PTH1R parental cells (mock) worked out at 19.8%. Besides, in experiment [1], the efficacy, β-arrestin recruitment, CHO-K1 PTH1R + RAMP2 cells was 103%; the efficacy, β-arrestin recruitment, CHO-K1 PTH1R parental cells (mock) came out at 6.31%; the pEC50, cAMP accumulation (Gαs), CHO-K1 PTH1R + RAMP2 cells came out at 9.55 pEC50; the pEC50, cAMP accumulation (Gαs), CHO-K1 PTH1R + RAMP3 cells turned out to be 8.55 pEC50. For the same molecule, in experiment [1], the pEC50, cAMP accumulation (Gαs), CHO-K1 PTH1R parental cells (mock) was determined as 9.3 pEC50; the pEC50, cAMP accumulation after pertussis toxin (cAMP + PTX), CHO-K1 PTH1R + RAMP2 cells amounted to 10 pEC50; the pEC50, cAMP accumulation after pertussis toxin (cAMP + PTX), CHO-K1 PTH1R + RAMP3 cells came out at 8.48 pEC50; the pEC50, cAMP accumulation after pertussis toxin (cAMP + PTX), CHO-K1 PTH1R parental cells (mock) came to 8.9 pEC50. In addition, in experiment [1], the pEC50, calcium influx (Gαq), CHO-K1 PTH1R + RAMP2 cells turned out to be 8.21 pEC50; the pEC50, calcium influx (Gαq), CHO-K1 PTH1R parental cells (mock) amounted to 8.9 pEC50; the pEC50, β-arrestin recruitment, CHO-K1 PTH1R + RAMP2 cells worked out at 8.19 pEC50; the pEC50, β-arrestin recruitment, CHO-K1 PTH1R parental cells (mock) was found to be 8.6 pEC50.
PTHrP (1-108) (domain or fragment): in experiment [2], the efficacy, cAMP accumulation, CHO-K1 PTH1R + RAMP2 cells came to 81.4%; the efficacy, cAMP accumulation, CHO-K1 PTH1R parental cells (mock) stood at 72.8%; the pEC50, cAMP accumulation, CHO-K1 PTH1R + RAMP2 cells came to 8.61 pEC50; the pEC50, cAMP accumulation, CHO-K1 PTH1R parental cells (mock) amounted to 8.25 pEC50.
As for PTHrP (1-141) (ligand), in experiment [2], the efficacy, cAMP accumulation, CHO-K1 PTH1R + RAMP2 cells was 85.3%; the efficacy, cAMP accumulation, CHO-K1 PTH1R + RAMP3 cells was 55.7%; the efficacy, cAMP accumulation, CHO-K1 PTH1R parental cells (mock) was determined as 74.9%; the pEC50, cAMP accumulation, CHO-K1 PTH1R + RAMP2 cells is 9.25 pEC50. In experiment [2], the pEC50, cAMP accumulation, CHO-K1 PTH1R + RAMP3 cells came out at 7.86 pEC50 and the pEC50, cAMP accumulation, CHO-K1 PTH1R parental cells (mock) is 9.23 pEC50.

B1: PTH (1-84) (ligand)
chain: SVSEIQLMHNLGKHLNSMERVEWLRKKLQDVHNFVALGAPLAPRDAGSQRPRKKEDNVLVESHEKSLGEADKADVNVLTKAKSQ
For the molecule B1, in experiment [3], the efficacy, cAMP accumulation (Gαs), CHO-K1 PTH1R + RAMP2 cells was determined as 95.5%; the efficacy, cAMP accumulation (Gαs), CHO-K1 PTH1R + RAMP3 cells stood at 72.2%; the efficacy, cAMP accumulation (Gαs), CHO-K1 PTH1R parental cells (mock) came out at 86.6%; the efficacy, cAMP accumulation after pertussis toxin (cAMP + PTX), CHO-K1 PTH1R + RAMP2 cells was found to be 94.3%. Further, in experiment [3], the efficacy, cAMP accumulation after pertussis toxin (cAMP + PTX), CHO-K1 PTH1R + RAMP3 cells came to 71.5%; the efficacy, cAMP accumulation after pertussis toxin (cAMP + PTX), CHO-K1 PTH1R parental cells (mock) was determined as 85.5%; the efficacy, calcium influx (Gαq), CHO-K1 PTH1R + RAMP2 cells was determined as 82.2%; the efficacy, β-arrestin recruitment, CHO-K1 PTH1R + RAMP2 cells was found to be 104%. Moreover, in experiment [3], the efficacy, β-arrestin recruitment, CHO-K1 PTH1R parental cells (mock) was determined as 6.08%; the pEC50, cAMP accumulation (Gαs), CHO-K1 PTH1R + RAMP2 cells was 9.24 pEC50; the pEC50, cAMP accumulation (Gαs), CHO-K1 PTH1R + RAMP3 cells was determined as 7.55 pEC50; the pEC50, cAMP accumulation (Gαs), CHO-K1 PTH1R parental cells (mock) amounted to 8.2 pEC50. Also, in experiment [3], the pEC50, cAMP accumulation after pertussis toxin (cAMP + PTX), CHO-K1 PTH1R + RAMP2 cells worked out at 9.01 pEC50; the pEC50, cAMP accumulation after pertussis toxin (cAMP + PTX), CHO-K1 PTH1R + RAMP3 cells is 7.51 pEC50; the pEC50, cAMP accumulation after pertussis toxin (cAMP + PTX), CHO-K1 PTH1R parental cells (mock) came out at 7.8 pEC50; the pEC50, calcium influx (Gαq), CHO-K1 PTH1R + RAMP2 cells was 7.38 pEC50. In experiment [3], the pEC50, β-arrestin recruitment, CHO-K1 PTH1R + RAMP2 cells was determined as 8.1 pEC50 and the pEC50, β-arrestin recruitment, CHO-K1 PTH1R parental cells (mock) was determined as 8.4 pEC50.

B2: receptor activity-modifying protein 3, C-tagged Cerulean RAMP3 (natural protein, human, UniProt O60896 24-148, looked up)
chain: RAGGCNETGMLERLPLCGKAFADMMGKVDVWKWCNLSEFIVYYESFTNCTEMEANVVGCYWPNPLAQGFITGIHRQFFSNCTVDRVHLEDPPDEVLIPLIVIPVVLTVAMAGLVVWRSKRTDTLL
notes: RAMP3, cDNA without its stop codon between Kpn1 and Not1 of pcDNA3.1 Cerulean; source: COS-7, transfected (electroporation, pcDNA3.1), in fixed cells; not shown: Cerulean, C-terminal, kept
Take B2: the “stoichiometry N” value in experiment [4] was about 2 RAMP3 per PTH1R. In experiment [5], the “R (molar ratio of acceptor to donor)” value was 0.37 ± 0.06 PTH1R (acceptor) per RAMP3 (donor) and the “cell membrane NFRET relative to cer-cit fusion” value stood at 32 ± 4.7%.

B3: receptor activity-modifying protein 2, C-tagged Cerulean RAMP2 (natural protein, human, UniProt O60895 43-175, looked up)
chain: QPLPTTGTPGSEGGTVKNYETAVQFCWNHYKDQMDPIEKDWCDWAMISRPYSTLRDCLEHFAELFDLGFPNPLAERIIFETHQIHFANCSLVQPTFSDPPEDVLLAMIIAPICLIPFLITLVVWRSKDSEAQA
notes: RAMP2, cDNA without its stop codon between Kpn1 and Not1 of pcDNA3.1 Cerulean; source: COS-7, transfected (electroporation, pcDNA3.1), in fixed cells; not shown: Cerulean, C-terminal, kept
B3: in experiment [4], the “stoichiometry N” value was about 1 RAMP2 per PTH1R. For the same molecule, in experiment [5], the “R (molar ratio of acceptor to donor)” value was 1.27 ± 0.31 PTH1R (acceptor) per RAMP2 (donor) and the “cell membrane NFRET relative to cer-cit fusion” value came to 48.8 ± 4.1%.

What is called stoichiometry N is a count of units in the complex or per binding partner.
